Experimental data taken from patent publication EP1073463B1.

Tests used:
[1] = target: human CD3 on Jurkat cells (human) (UniProt P07766); assay: cell-based or functional assay
human FcR = assay: cell-based or functional assay
[2] = target: human CD3 on Jurkat cells (human) (UniProt P07766); assay: competition with 125I-UCHT1 on Jurkat cells, competitor at 100 nM
[3] = target: human CD3 on Jurkat cells (human) (UniProt P07766); assay: competition with 125I-UCHT1 on Jurkat cells, competitor at 1 nM
[4] = target: human CD3 on Jurkat cells (human) (UniProt P07766); assay: competition with 125I-UCHT1 on Jurkat cells, COS-7 preparation at 100 nM
[5] = target: human CD3 on Jurkat cells (human) (UniProt P07766); assay: competition with 125I-UCHT1 on Jurkat cells, SP2/0 preparation at 1 nM
[6] = target: human CD3 on Jurkat cells (human) (UniProt P07766); assay: competition with 125I-UCHT1 on Jurkat cells, COS-7 preparation at 1 nM
[7] = target: human CD3 on Jurkat cells (human) (UniProt P07766); assay: competition with 125I-UCHT1 on Jurkat cells, SP2/0 preparation at 100 nM

UniProt P07766, sequence (P07766 23-207): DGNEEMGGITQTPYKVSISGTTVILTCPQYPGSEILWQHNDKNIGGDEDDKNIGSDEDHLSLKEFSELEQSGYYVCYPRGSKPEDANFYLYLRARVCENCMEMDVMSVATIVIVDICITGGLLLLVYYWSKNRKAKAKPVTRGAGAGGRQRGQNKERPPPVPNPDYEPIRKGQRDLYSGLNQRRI

“sFv-DT390, anti-CD3 single-chain immunotoxin with truncated diphtheria toxin (from UniProt P00588 33-422)” was tested, and the IC50 (toxicity, inhibition of protein synthesis) [1] was 48 pM, the Protein synthesis (% of controls), Jurkat cells, 1 x 10^-10 M, no serum (% of controls) [1] was 18 and the potency relative to UCHT1-CRM9 (fold of UCHT1-CRM9 potency) [1] was 0.0625.

“UCHT1 monoclonal antibody (anti-human CD3)” was tested, and the T-cell proliferation of human PBMCs ([3H]thymidine incorporation), concentration at peak (human FcR) was 100 ng/mL, the T-cell proliferation of human PBMCs ([3H]thymidine incorporation), lowest active concentration (human FcR) was 0.1 ng/mL and the % of 125I-UCHT1 bound to cells [2] was 0%. It also gave a % of 125I-UCHT1 bound to cells [3] of 80%.

“scUCHT1, chimeric anti-human CD3 single chain antibody (UCHT1 VL-linker-VH fused to human IgM Fc µCH2 to µCH4) (from UniProt P01871 106-453) (scFv)” showed a % of 125I-UCHT1 bound to cells [4] of 0%, a % of 125I-UCHT1 bound to cells [5] of 80% and a % of 125I-UCHT1 bound to cells [6] of 80%. For the same substance, the % of 125I-UCHT1 bound to cells [7] was 0%.
